# Assay results from PMC11446229, “CyaY and TusA regulate ISC- and SUF-mediated L-cysteine desulfurase activity†” (RSC Chemical Biology, 2024).
# B1: SufS, cysteine desulfurase of the SUF system (enzyme, E. coli, UniProt P77444 1-406, looked up)
# chain: MIFSVDKVRADFPVLSREVNGLPLAYLDSAASAQKPSQVIDAEAEFYRHGYAAVHRGIHTLSAQATEKMENVRKRASLFINARSAEELVFVRGTTEGINLVANSWGNSNVRAGDNIIISQMEHHANIVPWQMLCARVGAELRVIPLNPDGTLQLETLPTLFDEKTRLLAITHVSNVLGTENPLAEMITLAHQHGAKVLVDGAQAVMHHPVDVQALDCDFYVFSGHKLYGPTGIGILYVKEALLQEMPPWEGGGSMIATVSLSEGTTWTKAPWRFEAGTPNTGGIIGLGAALEYVSALGLNNIAEYEQNLMHYALSQLESVPDLTLYGPQNRLGVIAFNLGKHHAYDVGSFLDNYGIAVRTGHHCAMPLMAYYNVPAMCRASLAMYNTHEEVDRLVTGLQRIHRLLG
# notes: SufS, L-cysteine desulfurase of E. coli; Seen by native MS as a dimer with associated PLP cofactors (89 956 Da; predicted 89 892 Da + (S0)2); Surmise: the predicted mass is larger than two natural chains plus two PLP, so a few residues may be left on each chain after thrombin cleavage; also called (SufS)2; dimeric SufS; source: E. coli BL21 DE3, plasmid pSL213, purified, (His)6-tag cleaved with …
# Legend:
# [1] = biological target: B1; assay: native MS; SufS (~8 uM, ~4 uM dimer) titrated with SufE; 250 mM ammonium acetate pH 8; relative intensities fitted to a sequential binding model (Dynafit); details: both partners purified
# [2] = biological target: the molecule itself; assay: native MS; desulfurase alone, ~8 uM (~4 uM dimer), 250 mM ammonium acetate pH 8.0, deconvoluted spectrum
# [3] = biological target: T1, SufSE complex (SufS dimer with bound SufE), formed before CyaY was added (E. coli, UniProt P77444 1-406; P76194 1-138); assay: native MS; pre-formed SufSE complexes treated with a 4-fold excess of CyaY and titrated with CyaY up to about 35 uM; 250 mM ammonium acetate pH 8; only the first part of the titration measured, Kd an approximation; details: both partners purified
# T1 construct: SufS, L-cysteine desulfurase of E. coli, as the chain of m4; SufE of E. coli, as the chain of m5; A mixture of complexes: mainly one or two SufE on each SufS dimer, with some (SufE)3(SufS)2 before CyaY was added; In the activity assay 30 uM SufS plus 90 uM SufE; also called SufE–SufS complexes; SufS/SufE; source: mixed from SufS and SufE, each purified from E. coli BL21 DE3; copies: 2 +
# T1 sequence (looked up) 1: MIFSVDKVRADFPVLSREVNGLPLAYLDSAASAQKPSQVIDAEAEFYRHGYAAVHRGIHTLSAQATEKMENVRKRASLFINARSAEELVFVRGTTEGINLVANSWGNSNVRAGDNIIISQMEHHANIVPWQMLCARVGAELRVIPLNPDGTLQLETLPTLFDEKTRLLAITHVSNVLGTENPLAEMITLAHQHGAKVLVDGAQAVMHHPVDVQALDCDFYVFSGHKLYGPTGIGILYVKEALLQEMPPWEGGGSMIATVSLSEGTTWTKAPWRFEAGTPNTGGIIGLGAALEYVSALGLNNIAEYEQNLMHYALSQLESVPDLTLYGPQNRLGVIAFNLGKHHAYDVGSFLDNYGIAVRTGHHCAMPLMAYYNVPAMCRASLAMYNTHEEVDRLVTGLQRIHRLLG
# T1 sequence (looked up) 2: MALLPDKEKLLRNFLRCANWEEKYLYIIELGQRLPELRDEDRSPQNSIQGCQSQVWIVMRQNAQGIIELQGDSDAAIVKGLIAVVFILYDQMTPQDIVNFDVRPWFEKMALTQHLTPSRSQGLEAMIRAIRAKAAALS
# [4] = biological target: T2, IscS, cysteine desulfurase of the ISC system (E. coli, UniProt P0A6B7 1-404); assay: native MS; IscS (8 uM, 4 uM dimer) pre-treated with 0.5 equivalents of TusA (4 uM), then titrated with CyaY; 250 mM ammonium acetate pH 8; relative intensities fitted to a simple competition binding model (Dynafit); details: both partners purified
# T2 construct: IscS, L-cysteine desulfurase of E. coli; Seen by native MS as a dimer with associated PLP cofactors (90 662 Da; predicted 90 642 Da + Na); No tag is named for this construct; Surmise: the predicted mass fits two untagged whole chains plus two PLP; also called (IscS)2; dimeric IscS; source: E. coli BL21 DE3, plasmid pSL209, purified (previously published procedures)
binder,measurement,setting,value
"SufE (natural protein, E. coli, UniProt P76194 1-138, looked up, SufE, sulfur acceptor of SufS, E. coli; Tag cleavage is told only of SufS and CyaY; Surmise: the printed mass interval of ~16.7 kDa for each SufE is larger than the natural chain, so the tag may have been kept; also called SufE-(His)6; source: E. coli BL21 DE3, plasmid pET15b, purified (previously published procedures)) MALLPDKEKLLRNFLRCANWEEKYLYIIELGQRLPELRDEDRSPQNSIQGCQSQVWIVMRQNAQGIIELQGDSDAAIVKGLIAVVFILYDQMTPQDIVNFDVRPWFEKMALTQHLTPSRSQGLEAMIRAIRAKAAALS",Kd of the first and second SufE on the SufS dimer (high affinity site),[1],~8 µM
same,Kd of the third and fourth SufE on the SufS dimer (low affinity site),[1],~71 µM
same,stoichiometry N,[1],≤ 4 per SufS dimer
B1,stoichiometry N,[2],2
"CyaY, the frataxin homolog of Escherichia coli (natural protein, E. coli, UniProt P27838 1-106, looked up, CyaY, frataxin homolog of E. coli; Two plasmids are named (pET15b or pMB10); also called CyaY-(His)6; source: E. coli BL21 DE3, plasmid pET15b or pMB10, purified, (His)6-tag cleaved with thrombin) MNDSEFHRLADQLWLTIEERLDDWDGDSDIDCEINGGVLTITFENGSKIIINRQEPLHQVWLATKQGGYHFDLKGDEWICDRSGETFWDLLEQAATQQAGETVSFR",Kd,[3],~70 µM
same,Kd,[4],~26 µM
same,stoichiometry N,[4],≤ 2 per IscS dimer
